# Laboratory results published in patent publication US20180185450A1 (Sanofi, published 2018).
# Numbered stars: 1 amine (or outer) side, 2 acyl side, 3 side chain; on linkers, the order of the positions; unused ones are H or OH. Square brackets hold non-standard residues; d marks the D form. Side chains are listed from the residue outwards. Ends that are not written are not given here. γGlu = O=C(O)[C@H](CCC(=O)[*:2])N[*:1]; x53 = not defined here; Aib = CC(C)(N)C(=O)O
# Biological target: human glucagon receptor (human, UniProt P47871 26-477)
# Sequence (P47871 26-477): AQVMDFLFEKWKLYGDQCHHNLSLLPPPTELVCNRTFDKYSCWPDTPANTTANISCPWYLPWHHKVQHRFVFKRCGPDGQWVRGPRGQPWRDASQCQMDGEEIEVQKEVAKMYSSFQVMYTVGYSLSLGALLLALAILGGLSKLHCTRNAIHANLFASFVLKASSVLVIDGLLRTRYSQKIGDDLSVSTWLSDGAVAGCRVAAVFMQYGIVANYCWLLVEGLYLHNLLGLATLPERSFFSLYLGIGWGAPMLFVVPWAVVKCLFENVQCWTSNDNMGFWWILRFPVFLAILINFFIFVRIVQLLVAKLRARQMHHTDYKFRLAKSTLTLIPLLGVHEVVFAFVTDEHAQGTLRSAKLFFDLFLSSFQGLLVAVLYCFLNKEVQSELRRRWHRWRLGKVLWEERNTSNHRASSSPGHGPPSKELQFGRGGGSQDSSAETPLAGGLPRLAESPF
# Experiment: cell-based or functional assay
row,Binder,EC50 hGlucagon-R (cAMP)
1,HXHGTFTSDLSKQKESRRAQDFIEWLKAGGPSSGAPPPS (dSer at 2; K(γE-x53) at 14; C-terminal NH2) [SEQ ID NO: 73],1.7 pM
2,HXQGTFTSDLSKQKESRRAXDFIEWLKAGGPSSGAPPPS (dSer at 2; K(x53) at 14; Aib at 20; C-terminal NH2) [SEQ ID NO: 76],162 pM
3,HXQGTFTSDLSKQKESRAAQDFIEWLKAGGPSSGAPPPS (dSer at 2; K(γE-x75) at 14; C-terminal NH2) [SEQ ID NO: 9],4.1 pM
4,H[Aib]QGTFTSDLSKQK([γGlu-x53])ESRRAQDFIEWLKAGGPSSGAPPPS-NH2 (reading uncertain) [SEQ ID NO: 77],11.9 pM
5,HXQGTFTSDLSKQKESRRAQDFIEWLKXGGPSSGAPPPS (dSer at 2; K(γE-x53) at 14; Aib at 28; C-terminal NH2) [SEQ ID NO: 79],7.5 pM
6,HXQGTFTSDLSKQKDSRRAQDFIEWLKDGGPSSGAPPPS (dSer at 2; K(γE-x53) at 14; C-terminal NH2) [SEQ ID NO: 80],1 pM
7,HXQGTFTSDLSKQKDSRRAQDFIEWLKDGGPSSGAPPPS (dSer at 2; K(x53) at 14; C-terminal NH2) [SEQ ID NO: 81],7.1 pM
8,HXQGTFTSDLSKQKESRRAQDFIEWLKEGGPSSGRPPPS (dSer at 2; K(γE-x53) at 14; C-terminal NH2) [SEQ ID NO: 82],4.7 pM
9,HXQGTFTSDLSKQKESRRAQDFIEWLKEGGPSSGRPPPS (dSer at 2; K(x53) at 14; C-terminal NH2) [SEQ ID NO: 83],41.3 pM
10,HXQGTFTSDLSKQKESRRAQDFIEWLKKGGPSSGAPPPS (dSer at 2; K(γE-x53) at 14; C-terminal NH2) [SEQ ID NO: 85],10.4 pM
11,HXQGTFTSDLSKQKDSQAAQDFIEWLKNTGPSSGAPPPS (dSer at 2; K(γE-x53) at 14; C-terminal NH2) [SEQ ID NO: 86],3.5 pM
12,HXQGTFTSDLSKQKDSRRAQDFIEWLKNGGPSSGAPPPS (dSer at 2; K(γE-x53) at 14; C-terminal NH(n-Propyl)) [SEQ ID NO: 10],1.7 pM
13,HXQGTFTSDLSKQKDERRAKDFIEWLKNGGPSSGAPPPS (dSer at 2; K(γE-x53) at 14; C-terminal NH2) [SEQ ID NO: 87],1.3 pM
14,HXQGTFTSDLSKQKEKRRAQDFIEWLKNGGPSSGAPPPS (dSer at 2; K(γE-x53) at 14; C-terminal NH2) [SEQ ID NO: 88],1.6 pM
15,HXQGTFTSDLSKQKDSRRAQDFIEWLKNGGPSSGAPPPS (dSer at 2; K(γE-x60) at 14; C-terminal NH2) [SEQ ID NO: 89],13.7 pM
16,HXQGTFTSDLSKQKDSRRAQDFIEWLKNGGPSSGAPPPS (dSer at 2; K(γE-x69) at 14; C-terminal NH2) [SEQ ID NO: 90],3.7 pM
17,HXQGTFTSDLSKQKDSRRAQDFIEWLKNGGPSSGAPPPS (dSer at 2; K(γE-x72) at 14; C-terminal NH2) [SEQ ID NO: 91],8.9 pM
18,HXQGTFTSDLSKQKDSRRAQDFIEWLKNTGPSSGAPPPS (dSer at 2; K(γE-x53) at 14; C-terminal NH2) [SEQ ID NO: 92],1 pM
19,HXQGTFTSDLSKQKDSRRAQDFIEWLKNAGPSSGAPPPS (dSer at 2; K(γE-x53) at 14; C-terminal NH2) [SEQ ID NO: 93],2.6 pM
20,HXQGTFTSDLSKQKDSRRAQDFIEWLKNXGPSSGAPPPS (dSer at 2; K(γE-x53) at 14; dAla at 29; C-terminal NH2) [SEQ ID NO: 94],2.1 pM
21,HXQGTFTSDLSKQKESRRAQDFIEWLKNAGPSSGAPPPS (dSer at 2; K(γE-x53) at 14; C-terminal NH2) [SEQ ID NO: 95],9.2 pM
22,HXQGTFTSDLSKQKESRRAQDFIEWLKNTGPSSGAPPPS (dSer at 2; K(γE-x53) at 14; C-terminal NH2) [SEQ ID NO: 96],3.4 pM
23,HXQGTFTSDLSKQKESXAAQDFIEWLKAGGPSSGAPPPS (dSer at 2; K(γE-x70) at 14; Aib at 17; C-terminal NH2) [SEQ ID NO: 11],25.7 pM
24,HXQGTFTSDLSKQKDSRRAQDFIEWLKNGGPSSGAPPPS (dSer at 2; K(γE-x53) at 14; C-terminal NH(pyrrolidin)) [SEQ ID NO: 98],1.4 pM

# Biological target: human GLP-1 receptor (human, UniProt P43220 24-463)
# Experiment: cell-based or functional assay
row,Binder,EC50 hGLP-1R (cAMP)
1,HAEGTFTSDVSSYLEGQAAKEIAWLVKGR-NH2 [GLP-1(7-36)-amide],0.7 pM
2,HXHGTFTSDLSKQKESRRAQDFIEWLKAGGPSSGAPPPS (dSer at 2; K(γE-x53) at 14; C-terminal NH2) [SEQ ID NO: 73],4.1 pM
3,HXQGTFTSDLSKQKESRRAXDFIEWLKAGGPSSGAPPPS (dSer at 2; K(x53) at 14; Aib at 20; C-terminal NH2) [SEQ ID NO: 76],44.9 pM
4,HXQGTFTSDLSKQKESRAAQDFIEWLKAGGPSSGAPPPS (dSer at 2; K(γE-x75) at 14; C-terminal NH2) [SEQ ID NO: 9],2.2 pM
5,H[Aib]QGTFTSDLSKQK([γGlu-x53])ESRRAQDFIEWLKAGGPSSGAPPPS-NH2 (reading uncertain) [SEQ ID NO: 77],4.3 pM
6,HXQGTFTSDLSKQKESRRAQDFIEWLKXGGPSSGAPPPS (dSer at 2; K(γE-x53) at 14; Aib at 28; C-terminal NH2) [SEQ ID NO: 79],23.3 pM
7,HXQGTFTSDLSKQKDSRRAQDFIEWLKDGGPSSGAPPPS (dSer at 2; K(γE-x53) at 14; C-terminal NH2) [SEQ ID NO: 80],5.8 pM
8,HXQGTFTSDLSKQKDSRRAQDFIEWLKDGGPSSGAPPPS (dSer at 2; K(x53) at 14; C-terminal NH2) [SEQ ID NO: 81],48 pM
9,HXQGTFTSDLSKQKESRRAQDFIEWLKEGGPSSGRPPPS (dSer at 2; K(γE-x53) at 14; C-terminal NH2) [SEQ ID NO: 82],11.7 pM
10,HXQGTFTSDLSKQKESRRAQDFIEWLKEGGPSSGRPPPS (dSer at 2; K(x53) at 14; C-terminal NH2) [SEQ ID NO: 83],53.9 pM
11,HXQGTFTSDLSKQKESRRAQDFIEWLKKGGPSSGAPPPS (dSer at 2; K(γE-x53) at 14; C-terminal NH2) [SEQ ID NO: 85],8.1 pM
12,HXQGTFTSDLSKQKDSQAAQDFIEWLKNTGPSSGAPPPS (dSer at 2; K(γE-x53) at 14; C-terminal NH2) [SEQ ID NO: 86],4.9 pM
13,HXQGTFTSDLSKQKDSRRAQDFIEWLKNGGPSSGAPPPS (dSer at 2; K(γE-x53) at 14; C-terminal NH(n-Propyl)) [SEQ ID NO: 10],9.2 pM
14,HXQGTFTSDLSKQKDERRAKDFIEWLKNGGPSSGAPPPS (dSer at 2; K(γE-x53) at 14; C-terminal NH2) [SEQ ID NO: 87],3 pM
15,HXQGTFTSDLSKQKEKRRAQDFIEWLKNGGPSSGAPPPS (dSer at 2; K(γE-x53) at 14; C-terminal NH2) [SEQ ID NO: 88],2.4 pM
16,HXQGTFTSDLSKQKDSRRAQDFIEWLKNGGPSSGAPPPS (dSer at 2; K(γE-x60) at 14; C-terminal NH2) [SEQ ID NO: 89],35.6 pM
17,HXQGTFTSDLSKQKDSRRAQDFIEWLKNGGPSSGAPPPS (dSer at 2; K(γE-x69) at 14; C-terminal NH2) [SEQ ID NO: 90],8.8 pM
18,HXQGTFTSDLSKQKDSRRAQDFIEWLKNGGPSSGAPPPS (dSer at 2; K(γE-x72) at 14; C-terminal NH2) [SEQ ID NO: 91],15.1 pM
19,HXQGTFTSDLSKQKDSRRAQDFIEWLKNTGPSSGAPPPS (dSer at 2; K(γE-x53) at 14; C-terminal NH2) [SEQ ID NO: 92],26 pM
20,HXQGTFTSDLSKQKDSRRAQDFIEWLKNAGPSSGAPPPS (dSer at 2; K(γE-x53) at 14; C-terminal NH2) [SEQ ID NO: 93],10.7 pM
21,HXQGTFTSDLSKQKDSRRAQDFIEWLKNXGPSSGAPPPS (dSer at 2; K(γE-x53) at 14; dAla at 29; C-terminal NH2) [SEQ ID NO: 94],5.2 pM
22,HXQGTFTSDLSKQKESRRAQDFIEWLKNAGPSSGAPPPS (dSer at 2; K(γE-x53) at 14; C-terminal NH2) [SEQ ID NO: 95],20.6 pM
23,HXQGTFTSDLSKQKESRRAQDFIEWLKNTGPSSGAPPPS (dSer at 2; K(γE-x53) at 14; C-terminal NH2) [SEQ ID NO: 96],74.3 pM
24,HXQGTFTSDLSKQKESXAAQDFIEWLKAGGPSSGAPPPS (dSer at 2; K(γE-x70) at 14; Aib at 17; C-terminal NH2) [SEQ ID NO: 11],3.6 pM
25,HXQGTFTSDLSKQKDSRRAQDFIEWLKNGGPSSGAPPPS (dSer at 2; K(γE-x53) at 14; C-terminal NH(pyrrolidin)) [SEQ ID NO: 98],9.6 pM
